Results on 1 molecule are retold here after patent publication US20090156489A1 (Genentech, published 2009).

In test [1] the target is T1, DCC expressed on COS cells (human, UniProt P43146 26-1447).
T1 construct: whole, on cells
In words: cell surface binding assay on transfected COS7 cells, fluorescence microscopy (data not shown). As to the method: (§1) The resultant fusion proteins were expressed and used in binding assays over a panel of ˜400 putative cell surface transmembrane or GPI-anchored cell surface human proteins that were transiently expressed in COS7 cells. Purified ECD-Fc fusion proteins (0.5 μg/ml) or the crude baculovirus lysates were added to transiently transfected COS7 cells for 1-2 hours at room temperature. After 3 rinses with cold phosphate buffered saline (PBS), the bound protein was cross-linked to the cell surface with 4% paraformaldehyde. The bound Fc fusion protein was detected by biotinylated anti-human IgGFc and R-phycoerythrin-conjugated streptavidin (Jackson Immunoresearch). Cell surface staining was visualized by fluorescent microscopy and images were taken with the Penguin 800CL digital camera system (Pixera).
(§2) Although the NGL-1 and Netrin-G1 interaction appeared to be specific within the context of the screen, the classical Netrins and their known receptors, DCC and Unc5, were not included in the screen. Thus whether NGL-1 also interacts with Netrin-1 and its receptors was determined. Using the same cell surface binding assay, NGL-1, Netrin-G1, or Netrin-1 were expressed in COS7 cells (rows in FIG. 1a-i) and their ability to bind the IgG Fe fusion protein of NGL-1, Netrin-G1, or DCC (columns in FIG. 1a-i) was determined. […]

The target of test [2] is chicken Netrin-1 expressed in COS7 cells (chicken, UniProt Q90922 26-606). In words: cell surface binding assay on transfected COS7 cells, fluorescence microscopy. How it is done:
as §1, §2

T1 sequence (P43146 26-1447): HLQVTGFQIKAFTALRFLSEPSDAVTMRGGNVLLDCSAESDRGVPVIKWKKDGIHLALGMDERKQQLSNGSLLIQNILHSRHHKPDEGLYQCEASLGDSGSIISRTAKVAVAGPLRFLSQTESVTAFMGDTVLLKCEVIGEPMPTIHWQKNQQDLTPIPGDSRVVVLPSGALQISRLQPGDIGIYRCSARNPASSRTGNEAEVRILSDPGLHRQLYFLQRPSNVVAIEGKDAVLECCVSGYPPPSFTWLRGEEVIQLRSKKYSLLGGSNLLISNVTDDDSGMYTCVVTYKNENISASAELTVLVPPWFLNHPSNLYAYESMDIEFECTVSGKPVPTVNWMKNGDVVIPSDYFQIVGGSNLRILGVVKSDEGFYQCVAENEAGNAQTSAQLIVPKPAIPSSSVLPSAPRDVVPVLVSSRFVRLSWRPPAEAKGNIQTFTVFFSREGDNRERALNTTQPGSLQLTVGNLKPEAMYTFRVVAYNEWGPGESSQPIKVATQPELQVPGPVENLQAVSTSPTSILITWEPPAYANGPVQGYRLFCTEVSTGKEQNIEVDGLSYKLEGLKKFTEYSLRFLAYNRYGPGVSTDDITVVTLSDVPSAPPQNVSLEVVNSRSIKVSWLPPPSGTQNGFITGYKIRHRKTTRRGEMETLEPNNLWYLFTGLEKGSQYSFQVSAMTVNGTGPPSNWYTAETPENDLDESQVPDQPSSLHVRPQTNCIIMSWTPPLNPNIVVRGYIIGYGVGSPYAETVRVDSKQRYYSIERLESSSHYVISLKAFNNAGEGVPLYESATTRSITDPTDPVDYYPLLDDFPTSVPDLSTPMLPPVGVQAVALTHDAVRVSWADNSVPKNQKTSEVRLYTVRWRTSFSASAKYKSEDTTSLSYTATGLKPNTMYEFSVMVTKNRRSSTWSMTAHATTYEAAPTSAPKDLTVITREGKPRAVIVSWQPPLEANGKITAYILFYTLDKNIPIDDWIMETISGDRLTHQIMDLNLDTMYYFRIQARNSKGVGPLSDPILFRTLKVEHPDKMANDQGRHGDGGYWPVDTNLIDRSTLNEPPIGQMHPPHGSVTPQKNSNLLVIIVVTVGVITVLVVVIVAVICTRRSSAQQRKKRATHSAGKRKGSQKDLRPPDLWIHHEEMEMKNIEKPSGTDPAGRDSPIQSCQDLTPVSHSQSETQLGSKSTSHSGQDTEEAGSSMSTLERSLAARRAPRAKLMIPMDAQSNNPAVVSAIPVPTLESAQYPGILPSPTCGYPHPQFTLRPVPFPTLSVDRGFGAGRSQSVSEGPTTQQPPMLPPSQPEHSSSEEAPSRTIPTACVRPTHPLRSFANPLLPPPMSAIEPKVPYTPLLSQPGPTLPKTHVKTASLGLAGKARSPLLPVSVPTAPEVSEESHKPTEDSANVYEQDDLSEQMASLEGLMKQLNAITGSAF

B1: human Netrin-G1-Fc (Fc fusion, UniProt Q9Y2I2-1 29-409, looked up)
chain: HYDLCKTQIYTEEGKVWDYMACQPESTDMTKYLKVKLDPPDITCGDPPETFCAMGNPYMCNNECDASTPELAHPPELMFDFEGRHPSTFWQSATWKEYPKPLQVNITLSWSKTIELTDNIVITFESGRPDQMILEKSLDYGRTWQPYQYYATDCLDAFHMDPKSVKDLSQHTVLEIICTEEYSTGYTTNSKIIHFEIKDRFAFFAGPRLRNMASLYGQLDTTKKLRDFFTVTDLRIRLLRPAVGEIFVDELHLARYFYAISDIKVRGRCKCNLHATVCVYDNSKLTCECEHNTTGPDCGKCKKNYQGRPWSPGSYLPIPKGTANTCIPSISSIGTNVCDNELLHCQNGGTCHNNVRCLCPAAYTGILCEKLRCEEAGSCGS
notes: extracellular domain; also called Netrin-G1-Fc fusion protein; not shown: human IgG1 Fc region
On to B1, for which the binding result in test [1] and in test [2] was “no binding” throughout.
